Holding throughout (assay): capture ELISA, alanine scan, vs silent alanine substitutions
Experiment [1] deals with T1, hCTLA4_ECD.His point mutant N145 to alanine (human, UniProt P16410 36-161).
T1 construct: extracellular domain; alanine-scan mutein, HEK293F supernatant
T1 sequence (looked up): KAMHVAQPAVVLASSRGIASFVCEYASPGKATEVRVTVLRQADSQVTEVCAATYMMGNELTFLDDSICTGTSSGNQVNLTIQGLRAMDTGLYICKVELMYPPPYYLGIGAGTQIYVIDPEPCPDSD
An outline of the steps: (§1)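 Secreted His-tagged CTLA4 point muteins in quantified supernatant were captured and probed with HRP anti-His antibody and TMB. Absorbance normalised to the mean of control mutants; epitope residues were assigned with a binding fold-change cutoff of <0.55.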

The target in experiment [2] is T2, hCTLA4_ECD.His point mutant K130 to alanine (human, UniProt P16410 36-161).
T2 construct: extracellular domain; alanine-scan mutein, HEK293F supernatant
T2 sequence (looked up): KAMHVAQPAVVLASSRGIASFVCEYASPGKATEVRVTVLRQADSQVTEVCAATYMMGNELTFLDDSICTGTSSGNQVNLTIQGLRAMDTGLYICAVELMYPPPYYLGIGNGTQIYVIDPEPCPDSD
In short, it runs like this: as §1

In experiment [3] the target is T3, hCTLA4_ECD.His point mutant V131 to alanine (human, UniProt P16410 36-161).
T3 construct: extracellular domain; alanine-scan mutein, HEK293F supernatant
T3 sequence (looked up): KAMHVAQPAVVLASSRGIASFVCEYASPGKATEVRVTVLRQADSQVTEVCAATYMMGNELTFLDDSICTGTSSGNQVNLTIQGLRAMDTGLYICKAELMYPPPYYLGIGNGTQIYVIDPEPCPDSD
In short, it runs like this:
as §1

In experiment [4] the target is T4, hCTLA4_ECD.His point mutant V81 to alanine (human, UniProt P16410 36-161).
T4 construct: extracellular domain; alanine-scan mutein, HEK293F supernatant
T4 sequence (looked up): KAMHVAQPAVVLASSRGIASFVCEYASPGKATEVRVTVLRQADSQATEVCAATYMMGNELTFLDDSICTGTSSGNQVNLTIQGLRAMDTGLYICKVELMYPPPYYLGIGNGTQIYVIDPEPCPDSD
An outline of the steps:
as §1

Experiment [5] deals with T5, hCTLA4_ECD.His point mutant M90 to alanine (human, UniProt P16410 36-161).
T5 construct: extracellular domain; alanine-scan mutein, HEK293F supernatant
T5 sequence (looked up): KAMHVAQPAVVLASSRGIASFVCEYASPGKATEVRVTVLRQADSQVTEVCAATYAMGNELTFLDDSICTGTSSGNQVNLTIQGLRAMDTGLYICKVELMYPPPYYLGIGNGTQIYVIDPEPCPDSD
In short, it runs like this: as §1

In experiment [6] the target is T6, hCTLA4_ECD.His point mutant G142 to alanine (human, UniProt P16410 36-161).
T6 construct: extracellular domain; alanine-scan mutein, HEK293F supernatant
T6 sequence (looked up): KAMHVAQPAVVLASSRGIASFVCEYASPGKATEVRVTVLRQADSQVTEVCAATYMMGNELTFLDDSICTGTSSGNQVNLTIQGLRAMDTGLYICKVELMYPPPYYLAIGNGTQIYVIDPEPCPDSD
In short, it runs like this:
as §1

The target of experiment [7] is T7, hCTLA4_ECD.His point mutant L141 to alanine (human, UniProt P16410 36-161).
T7 construct: extracellular domain; alanine-scan mutein, HEK293F supernatant
T7 sequence (looked up): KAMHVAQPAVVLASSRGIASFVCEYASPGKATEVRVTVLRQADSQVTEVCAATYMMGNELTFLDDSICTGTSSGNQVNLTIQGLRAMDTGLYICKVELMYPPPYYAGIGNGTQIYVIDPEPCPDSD
In short, it runs like this: as §1

In experiment [8] the target is T8, hCTLA4_ECD.His point mutant Y139 to alanine (human, UniProt P16410 36-161).
T8 construct: extracellular domain; alanine-scan mutein, HEK293F supernatant
T8 sequence (looked up): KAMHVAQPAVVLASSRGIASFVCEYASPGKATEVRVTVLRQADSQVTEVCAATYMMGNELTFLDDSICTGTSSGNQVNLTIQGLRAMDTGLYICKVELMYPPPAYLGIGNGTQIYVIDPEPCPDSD
An outline of the steps:
as §1

Experiment [9] concerns the target T9, hCTLA4_ECD.His point mutant Q76 to alanine (human, UniProt P16410 36-161).
T9 construct: extracellular domain; alanine-scan mutein, HEK293F supernatant
T9 sequence (looked up): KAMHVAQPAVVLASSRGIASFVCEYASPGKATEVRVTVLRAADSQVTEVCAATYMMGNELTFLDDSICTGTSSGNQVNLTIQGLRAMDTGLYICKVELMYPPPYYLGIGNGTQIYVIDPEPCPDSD
In short, it runs like this:
as §1

The target in experiment [10] is T10, hCTLA4_ECD.His point mutant C103 to alanine (human, UniProt P16410 36-161).
T10 construct: extracellular domain; alanine-scan mutein, HEK293F supernatant
T10 sequence (looked up): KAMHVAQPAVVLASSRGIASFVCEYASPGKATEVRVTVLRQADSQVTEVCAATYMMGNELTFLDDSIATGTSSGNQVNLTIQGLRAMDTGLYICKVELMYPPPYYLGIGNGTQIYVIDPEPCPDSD
An outline of the steps: as §1

Experiment [11] concerns the target T11, hCTLA4_ECD.His point mutant Y127 to alanine (human, UniProt P16410 36-161).
T11 construct: extracellular domain; alanine-scan mutein, HEK293F supernatant
T11 sequence (looked up): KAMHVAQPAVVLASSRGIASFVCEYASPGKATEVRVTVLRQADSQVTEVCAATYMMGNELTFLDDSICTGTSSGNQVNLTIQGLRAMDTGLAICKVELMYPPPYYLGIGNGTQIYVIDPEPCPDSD
An outline of the steps:
as §1

Experiment [12] addresses T12, hCTLA4_ECD.His point mutant T82 to alanine (human, UniProt P16410 36-161).
T12 construct: extracellular domain; alanine-scan mutein, HEK293F supernatant
T12 sequence (looked up): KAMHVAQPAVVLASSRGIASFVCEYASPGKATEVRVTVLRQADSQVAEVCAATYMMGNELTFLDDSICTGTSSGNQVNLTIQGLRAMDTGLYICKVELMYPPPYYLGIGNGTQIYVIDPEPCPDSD
In short, it runs like this: as §1

Experiment [13] deals with T13, hCTLA4_ECD.His point mutant G64 to alanine (human, UniProt P16410 36-161).
T13 construct: extracellular domain; alanine-scan mutein, HEK293F supernatant
T13 sequence (looked up): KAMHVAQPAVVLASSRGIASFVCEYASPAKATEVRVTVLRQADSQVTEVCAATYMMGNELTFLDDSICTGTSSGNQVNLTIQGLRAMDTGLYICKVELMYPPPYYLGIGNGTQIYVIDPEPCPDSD
In short, it runs like this: as §1

B1: W3162-1.146.19-z12-uAb.IgG1K (antibody, V domains shown)
VH: QVQLQESGPGLVKPSETLSLTCSVTYHTITSGYDWTWIRKPPGKGMEWIGYISYSGNTNYNPSLKSRVTISRDTSKNQFFLKLSSVTAADTAVYYCASMMVPHYYVMDAWGQGTLVTVSS
VL: DIVMTQTPLSLSVTPGQPASISCRSSQSLLNSDGNTYLYWYLQKPGQSPQLLIYLVSKLGSGVPNRFSGSGSGTDFTLKISRVEAEDVGVYYCVQGTHDPWTFGGGTKVEIK
notes: Humanized; label says IgG1K
On to B1, for which the Fold change in experiment [1] was determined as 0.196 fold; in experiment [2], 0.348 fold; in [3] it was 0.504 fold; in experiment [4], 0.191 fold; in experiment [5], 0.492 fold; in [6], 0.543 fold. The Fold change in experiment [7] was 0.486 fold; in experiment [8] it was 0.431 fold; in experiment [9] it was 0.2 fold; in experiment [10], 0.544 fold; in experiment [11] it was 0.529 fold; in experiment [12], 0.436 fold.

B2: W3162_1.154.8-z35-uAb.IgG1K (antibody, V domains shown)
VH: QVQLVQSGAEVKKPGSSVKVSCKASGYTFTNYFMNWVRQAPGQGLEWMGRVDPEQGRADYAEKFKKRVTITADKSTSTAYMELSSLRSEDTAVYYCARRAMDNYGFAYWGQGTLVTVSS
VL: EIVLTQSPDFQSVTPKEKVTITCSANSALSYMYWYQQKPDQSPKLWVHGTSNLASGVPSRFSGSGSGTDFTLTINSLEAEDAATYYCHHWSNTQWTFGGGTKVEIK
notes: Humanized; label says IgG1K
As for B2, the Fold change in experiment [13] was determined as 0.543 fold.

The record behind these values is patent US20200277377A1 (WUXI BIOLOGICS SHANGHAI, published 2020).
